The text below walks through data of publication PMC4687524, “Molecular Properties and Functional Divergence of the Dehydroascorbate Reductase Gene Family in Lower and Higher Plants” (PLoS ONE, 2015).

Common to all, as to experiment: A265 increase (ascorbate formation), nonlinear regression
Series [1] has as its system T1, ZmDHAR2.
T1 construct: gene DHAR2; clade I
The format is biochemical, Zea mays. The settings on record: 0.42 mM GSH; DHA 0.013-1.677 mM; 90 mM potassium phosphate pH 6.5, 25 C; read-out: Kinetic constants / K m ^DHA. The text has this:
A265 increase (ascorbate formation), nonlinear regression on ZmDHAR2

Substrate in series [2]: O=C1O[C@H]([C@@H](O)CO)C(=O)C1=O
The format is biochemical, Selaginella moellendorffii. To be noted: 0.42 mM GSH, DHA 0.013-1.677 mM, 90 mM potassium phosphate pH 6.5, 25 C. The text has this: A265 increase (ascorbate formation), nonlinear regression on SmDHAR1

Substrate in series [3]: O=C1O[C@H]([C@@H](O)CO)C(=O)C1=O
Format: biochemical, Picea abies. To be noted: 0.42 mM GSH, DHA 0.013-1.677 mM, 90 mM potassium phosphate pH 6.5, 25 C. The source says: A265 increase (ascorbate formation), nonlinear regression on PabDHAR2

Take `O=C1O[C@H]([C@@H](O)CO)C(=O)C1=O` [dehydroascorbate]: in series [1], the Km turned out to be 68 ± 9 µM.

B1: SmDHAR1 (Selaginella moellendorffii) (protein)
chain: MAVATTEAVEVLVKAANGDPSRLGDCPFSQRVLLTLEEKGIPYNSKFVDMENKPAWFLEANPEGKVPVVKDDGKWVADSDVITQLIETKFPSPSLVTPPEKSSVGSKIFSSFVKFLKSKDPSDGSEAALLEELKTLDEYLAKNGPFVNGSNISAVDLSLAPKLYHLKIALGHYKQWSVPQNLTNLNSYMEALFKRESFQKTMAPAEVVVKGWAKHLSA
notes: full length without predicted signal peptide, N-terminal 6xHis (pET-30a), E. coli BL21(DE3), Ni Sepharose; cytosolic, clade I
In the case of B1, the Km in series [2] amounted to 115 ± 4 µM.

B2: PabDHAR2 (Picea abies) (protein)
chain: MSDLEIFSKAAPGTGSPSKERGDCPFSQRIFLELEELGLPYTATYIQEGADKPHWFMEKNPSGLMPVLRDRETWIQDSDKIAQYLDDHYAENTLRTQVEFKNVGSKIFPIFTKWLQCKDPNSACRDEFVDELVGFDRHLQNHGPYIAGKRPTDSDFALAPKLRHARVALAHFMDFQFPRELGALQNYMNRMESRESFEKTNYPNDMIIQGWRAKFNLPEKIANAS
notes: full length without predicted signal peptide, N-terminal 6xHis (pET-30a), E. coli BL21(DE3), Ni Sepharose; cytosolic, clade II, five exons
With B2, the Km in series [3] stood at 118 ± 1 µM.
